# Target: minimal NANP3 peptide
# Assay: SPR
# Conditions: parent: est. 2.1e-6 M; read off a plot
row,Substance,Kd [µM]
1,2163 IgG (germline antibody 2163) H:N56K; K:S93N,2.6
2,2163 IgG (germline antibody 2163) H:N56K,2.6
3,2163 IgG (germline antibody 2163) H:V50I,0.13
4,2163 IgG (germline antibody 2163) H:S31N,1.5

# Target: full length PfCSP (NF54 strain) (Plasmodium falciparum (NF54 strain)) (UniProt P19597)
# Assay: not given
# Conditions: not given
# full length PfCSP (NF54 strain) (Plasmodium falciparum (NF54 strain)), sequence (P19597 19-374): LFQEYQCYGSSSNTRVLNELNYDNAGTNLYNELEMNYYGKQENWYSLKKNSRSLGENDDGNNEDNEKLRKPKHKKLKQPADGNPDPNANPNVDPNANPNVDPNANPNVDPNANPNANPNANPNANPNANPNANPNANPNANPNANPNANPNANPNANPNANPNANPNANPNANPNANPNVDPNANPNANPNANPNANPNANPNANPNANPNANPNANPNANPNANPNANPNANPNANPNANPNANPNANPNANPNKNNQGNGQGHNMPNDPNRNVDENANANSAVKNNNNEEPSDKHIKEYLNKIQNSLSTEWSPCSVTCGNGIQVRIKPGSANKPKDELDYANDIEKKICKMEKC
row,Substance,other [µg/mL]
1,2163_H.S31_Nmut IgG (antibody),0.12
2,2163_H.V50_Imut IgG (antibody),0.16
3,1210_H.V50_Imut IgG (antibody),0.16

# The next lines start with the values.
row,other [µg/mL],Substance
1,0.14,1210_H.N31_Srev IgG (antibody)
2,0.2,2163 IgG (germline antibody 2163)
3,0.14,1210_H.K56_Nrev IgG (antibody)
4,0.21,2163_KN IgG (2163_H.N56_Kmut_K.S93_Nmut) (antibody)
5,0.17,1210_NS IgG (1210_H.K56_Nrev_K.N93_Srev) (antibody)
